Experimental data published in publication PMC3079584, “A Cytoplasmic Complex Mediates Specific mRNA Recognition and Localization in Yeast”.

How the values were obtained:
[1] = biological target: T1, She2p (Saccharomyces cerevisiae, UniProt P36068 1-246); test: filter binding; range over three control RNAs; EMSA: 20 mM HEPES pH 7.8, 200 mM NaCl, 2 mM MgCl2, 2 mM DTT, 4% glycerol, 30 or 100 ug/ml yeast tRNA, 5 nM RNA, 20 C; filter binding: 20 mM HEPES pH 7.4-7.5 (7.9 with She3p), 150 mM NaCl, 2 mM MgCl2, 2 mM DTT, 30 ug/ml yeast tRNA, 0.5 nM RNA; pull-down: HNMD buffer, 4 C; settings: protein: recombinant; tags: GST tag (PreScission-cleaved); chain copies: 4; label: 32P; hairpin
[2] = biological target: T2, She2p;She3p (Saccharomyces cerevisiae;Saccharomyces …, UniProt P36068;P38272 1-246;1-425, |); test: EMSA; She3p constant 25 nM, She2p varied; EMSA: 20 mM HEPES pH 7.8, 200 mM NaCl, 2 mM MgCl2, 2 mM DTT, 4% glycerol, 30 or 100 ug/ml yeast tRNA, 5 nM RNA, 20 C; filter binding: 20 mM HEPES pH 7.4-7.5 (7.9 with She3p), 150 mM NaCl, 2 mM MgCl2, 2 mM DTT, 30 ug/ml yeast tRNA, 0.5 nM RNA; pull-down: HNMD buffer, 4 C; settings: protein: recombinant;recombinant; tags: GST tag (PreScission-cleaved);C-terminal His6; chain copies: 4;2; label: 32P; stem-loop
Target sequence in this assay (P36068 whole entry, one chain of several): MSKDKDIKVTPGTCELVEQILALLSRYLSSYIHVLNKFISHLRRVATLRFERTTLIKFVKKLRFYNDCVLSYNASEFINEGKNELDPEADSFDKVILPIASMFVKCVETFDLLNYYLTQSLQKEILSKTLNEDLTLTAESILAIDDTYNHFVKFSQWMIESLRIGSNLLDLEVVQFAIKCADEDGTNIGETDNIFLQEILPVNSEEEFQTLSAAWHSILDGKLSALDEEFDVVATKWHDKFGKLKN

[3] = biological target: T3, She3p (Saccharomyces cerevisiae, UniProt P38272 1-425); test: EMSA; subtle shift at 25 nM She3p; EMSA: 20 mM HEPES pH 7.8, 200 mM NaCl, 2 mM MgCl2, 2 mM DTT, 4% glycerol, 30 or 100 ug/ml yeast tRNA, 5 nM RNA, 20 C; filter binding: 20 mM HEPES pH 7.4-7.5 (7.9 with She3p), 150 mM NaCl, 2 mM MgCl2, 2 mM DTT, 30 ug/ml yeast tRNA, 0.5 nM RNA; pull-down: HNMD buffer, 4 C; settings: protein: recombinant; tags: C-terminal His6; label: 32P; stem-loop
T3 sequence: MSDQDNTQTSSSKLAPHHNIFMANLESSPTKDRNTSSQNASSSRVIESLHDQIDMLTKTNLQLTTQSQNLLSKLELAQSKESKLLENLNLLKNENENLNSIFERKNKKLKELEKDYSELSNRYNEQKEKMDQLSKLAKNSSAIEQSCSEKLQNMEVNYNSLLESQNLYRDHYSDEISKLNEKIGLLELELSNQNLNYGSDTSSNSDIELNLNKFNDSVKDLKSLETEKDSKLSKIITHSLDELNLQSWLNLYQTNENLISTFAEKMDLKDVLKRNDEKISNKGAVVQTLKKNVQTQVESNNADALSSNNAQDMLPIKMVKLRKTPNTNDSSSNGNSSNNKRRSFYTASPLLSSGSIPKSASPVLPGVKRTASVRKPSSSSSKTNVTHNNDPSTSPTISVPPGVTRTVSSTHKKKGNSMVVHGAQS

[4] = biological target: T2, She2p;She3p; test: EMSA; She3p constant 25 nM; Kd stated as in similar range; EMSA: 20 mM HEPES pH 7.8, 200 mM NaCl, 2 mM MgCl2, 2 mM DTT, 4% glycerol, 30 or 100 ug/ml yeast tRNA, 5 nM RNA, 20 C; filter binding: 20 mM HEPES pH 7.4-7.5 (7.9 with She3p), 150 mM NaCl, 2 mM MgCl2, 2 mM DTT, 30 ug/ml yeast tRNA, 0.5 nM RNA; pull-down: HNMD buffer, 4 C; settings: protein: recombinant;recombinant; tags: GST tag (PreScission-cleaved);C-terminal His6; chain copies: 4;2; label: 32P; stem-loop
Target sequence in this assay (P36068 whole entry, chain 1 of 2, one chain of several): as the sequence (P36068 whole entry, one chain of several) above

[5] = biological target: T3, She3p; test: UV cross-linking; EMSA: 20 mM HEPES pH 7.8, 200 mM NaCl, 2 mM MgCl2, 2 mM DTT, 4% glycerol, 30 or 100 ug/ml yeast tRNA, 5 nM RNA, 20 C; filter binding: 20 mM HEPES pH 7.4-7.5 (7.9 with She3p), 150 mM NaCl, 2 mM MgCl2, 2 mM DTT, 30 ug/ml yeast tRNA, 0.5 nM RNA; pull-down: HNMD buffer, 4 C; settings: protein: recombinant; tags: C-terminal His6; label: 32P; stem-loop
[6] = biological target: T1, She2p; test: as above; settings: protein: recombinant; tags: GST tag (PreScission-cleaved); chain copies: 4; label: 32P; stem-loop
[7] = biological target: Puf6p (Saccharomyces cerevisiae, UniProt Q04373 2-656); test: EMSA; EMSA: 20 mM HEPES pH 7.8, 200 mM NaCl, 2 mM MgCl2, 2 mM DTT, 4% glycerol, 30 or 100 ug/ml yeast tRNA, 5 nM RNA, 20 C; filter binding: 20 mM HEPES pH 7.4-7.5 (7.9 with She3p), 150 mM NaCl, 2 mM MgCl2, 2 mM DTT, 30 ug/ml yeast tRNA, 0.5 nM RNA; pull-down: HNMD buffer, 4 C; settings: protein: recombinant, tags: GST tag (cleaved for EMSA; retained in GST pull-downs), label: 32P
[8] = biological target: T3, She3p; test: as above; settings: protein: recombinant; tags: C-terminal His6; label: 32P; stem-loop
[9] = biological target: T2, She2p;She3p; test: size-exclusion chromatography; pull-down; EMSA: 20 mM HEPES pH 7.8, 200 mM NaCl, 2 mM MgCl2, 2 mM DTT, 4% glycerol, 30 or 100 ug/ml yeast tRNA, 5 nM RNA, 20 C; filter binding: 20 mM HEPES pH 7.4-7.5 (7.9 with She3p), 150 mM NaCl, 2 mM MgCl2, 2 mM DTT, 30 ug/ml yeast tRNA, 0.5 nM RNA; pull-down: HNMD buffer, 4 C; settings: protein: recombinant;recombinant; tags: GST tag (PreScission-cleaved);C-terminal His6; chain copies: 4;2; stem-loop
Target sequence in this assay (P36068 whole entry, one chain of several): as the sequence (P36068 whole entry, one chain of several) above

[10] = biological target: Puf6p;She2p;She3p (Saccharomyces cerevisiae;Saccharomyces …, UniProt Q04373;P36068;P38272 2-656;1-246;1-425, ||); test: pull-down; His-She3p or GST-Puf6p immobilized; EMSA: 20 mM HEPES pH 7.8, 200 mM NaCl, 2 mM MgCl2, 2 mM DTT, 4% glycerol, 30 or 100 ug/ml yeast tRNA, 5 nM RNA, 20 C; filter binding: 20 mM HEPES pH 7.4-7.5 (7.9 with She3p), 150 mM NaCl, 2 mM MgCl2, 2 mM DTT, 30 ug/ml yeast tRNA, 0.5 nM RNA; pull-down: HNMD buffer, 4 C; settings: protein: recombinant;recombinant;recombinant; tags: GST tag (cleaved for EMSA; retained in GST pull-downs);GST tag (PreScission-cleaved);C-terminal His6; stem-loop
[11] = biological target: She2p (ΔhE) (Saccharomyces cerevisiae, UniProt P36068 1-246, del174-183); test: size-exclusion chromatography; binary co-complex; EMSA: 20 mM HEPES pH 7.8, 200 mM NaCl, 2 mM MgCl2, 2 mM DTT, 4% glycerol, 30 or 100 ug/ml yeast tRNA, 5 nM RNA, 20 C; filter binding: 20 mM HEPES pH 7.4-7.5 (7.9 with She3p), 150 mM NaCl, 2 mM MgCl2, 2 mM DTT, 30 ug/ml yeast tRNA, 0.5 nM RNA; pull-down: HNMD buffer, 4 C; settings: protein: recombinant; tags: GST tag (PreScission-cleaved); chain copies: 2; stem-loop
[12] = biological target: She2p (ΔC);She3p (Saccharomyces cerevisiae;Saccharomyces …, UniProt P36068;P38272 1-240;1-425, |); test: size-exclusion chromatography; EMSA: 20 mM HEPES pH 7.8, 200 mM NaCl, 2 mM MgCl2, 2 mM DTT, 4% glycerol, 30 or 100 ug/ml yeast tRNA, 5 nM RNA, 20 C; filter binding: 20 mM HEPES pH 7.4-7.5 (7.9 with She3p), 150 mM NaCl, 2 mM MgCl2, 2 mM DTT, 30 ug/ml yeast tRNA, 0.5 nM RNA; pull-down: HNMD buffer, 4 C; settings: protein: recombinant;recombinant; tags: GST tag (PreScission-cleaved);C-terminal His6; stem-loop
[13] = biological target: Puf6p;She2p (Saccharomyces cerevisiae;Saccharomyces …, UniProt Q04373;P36068 2-656;1-246, |); test: pull-down; GST-Puf6p immobilized; EMSA: 20 mM HEPES pH 7.8, 200 mM NaCl, 2 mM MgCl2, 2 mM DTT, 4% glycerol, 30 or 100 ug/ml yeast tRNA, 5 nM RNA, 20 C; filter binding: 20 mM HEPES pH 7.4-7.5 (7.9 with She3p), 150 mM NaCl, 2 mM MgCl2, 2 mM DTT, 30 ug/ml yeast tRNA, 0.5 nM RNA; pull-down: HNMD buffer, 4 C; settings: protein: recombinant;recombinant; tags: GST tag (cleaved for EMSA; retained in GST pull-downs);GST tag (PreScission-cleaved); copies: 1;4; stem-loop
Puf6p;She2p, sequence (Q04373 2-656, chain 1 of 2): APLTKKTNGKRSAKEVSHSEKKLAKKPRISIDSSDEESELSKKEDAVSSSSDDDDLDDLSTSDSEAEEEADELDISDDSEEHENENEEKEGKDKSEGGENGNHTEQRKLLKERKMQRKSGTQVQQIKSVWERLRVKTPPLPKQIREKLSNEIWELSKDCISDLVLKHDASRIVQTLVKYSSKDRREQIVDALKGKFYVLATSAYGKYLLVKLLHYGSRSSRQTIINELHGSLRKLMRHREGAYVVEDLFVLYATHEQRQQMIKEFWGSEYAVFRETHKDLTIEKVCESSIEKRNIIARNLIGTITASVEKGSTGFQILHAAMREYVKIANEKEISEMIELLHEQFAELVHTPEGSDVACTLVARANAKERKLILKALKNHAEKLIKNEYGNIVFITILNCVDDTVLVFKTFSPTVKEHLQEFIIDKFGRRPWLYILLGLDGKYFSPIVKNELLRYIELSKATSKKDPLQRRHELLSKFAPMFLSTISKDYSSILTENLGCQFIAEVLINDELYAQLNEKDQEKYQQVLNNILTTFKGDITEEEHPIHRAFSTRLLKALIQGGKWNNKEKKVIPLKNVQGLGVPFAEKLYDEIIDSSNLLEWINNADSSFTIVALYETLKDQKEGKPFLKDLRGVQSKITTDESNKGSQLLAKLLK
Puf6p;She2p, sequence (P36068 whole entry, chain 2 of 2): as the sequence (P36068 whole entry, one chain of several) above

T1 sequence (P36068 whole entry): as the sequence (P36068 whole entry, one chain of several) above
Puf6p, sequence (Q04373 2-656): as the sequence (Q04373 2-656, chain 1 of 2) above
Puf6p;She2p;She3p, sequence (Q04373 2-656, chain 1 of 2): as above
Puf6p;She2p;She3p, sequence (P36068 whole entry, chain 2 of 2): as the sequence (P36068 whole entry, one chain of several) above
She2p (ΔC);She3p, sequence (P36068 1-240, stated change not applied, one chain of several): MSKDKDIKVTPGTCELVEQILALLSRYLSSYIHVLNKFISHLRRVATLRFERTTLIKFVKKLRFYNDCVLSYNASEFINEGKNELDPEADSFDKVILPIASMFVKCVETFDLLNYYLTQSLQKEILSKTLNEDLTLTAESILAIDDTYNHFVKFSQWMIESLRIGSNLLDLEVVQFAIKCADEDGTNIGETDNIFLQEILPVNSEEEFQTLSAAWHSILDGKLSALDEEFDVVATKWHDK
She2p (ΔhE), sequence (P36068 other isoform, or with tags, fused parts or gaps del174-183 | mutant): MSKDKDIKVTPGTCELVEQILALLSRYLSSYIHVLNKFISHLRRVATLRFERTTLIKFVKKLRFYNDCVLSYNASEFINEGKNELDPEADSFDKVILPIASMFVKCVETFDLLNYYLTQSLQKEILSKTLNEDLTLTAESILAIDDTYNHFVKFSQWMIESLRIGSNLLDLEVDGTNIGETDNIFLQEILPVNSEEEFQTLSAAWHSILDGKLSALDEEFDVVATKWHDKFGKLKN

CGAGCCUGGGAGCUCG (structured_RNA) [HIV-1 TAR (16 bases)]
Kd [1]: ~1330 nM

B1: HIV-1 TAR (57 bases) (structured_RNA)
RNA: GGUCUCUCUGGUUAGACCAGAUCUGAGCCUGGGAGCUCUCUGGCUAACUAGGGAACC
Kd [1]: ~1330 nM

B2: ASH1 E1 (structured_RNA)
RNA: AAGACUAUGUUAAAAUACGCGAAGAAGUGGCUCAUUUCAAGCCAUUAAGUAUACCCAACUUAACUAAUAAUCAAAAUAA
Kd [2]: ~25 nM | binding result [3]: binds

UUAUCCAUUGCACUCCGGAUGU (structured_RNA) [U1 snRNA hairpin II]
Kd [1]: ~1330 nM

B3: ASH1 E2A (structured_RNA)
RNA: UUGCGAAUAGAGACAUUCUAUCGAACAAUUCCAAAUCUAAUGUAAGGAAACCAUCUAAGAACAAAAUCUCAAAGCAA
Kd [2]: ~25 nM | binding result [3]: binds

B4: ASH1 E3-51 (structured_RNA)
RNA: AUGGAUAACUGAAUCUCUUUCAACUAAUAAGAGACAUUAUCACGAAACAAU
Kd [4]: ~25 nM | binding result [5]: binds | binding result [6]: binds

B5: Poly(A)60 (ssRNA)
RNA: AAAAAAAAAAAAAAAAAAAAAAAAAAAAAAAAAAAAAAAAAAAAAAAAAAAAAAAAAAAA
binding result [7]: binds

CGAAGAUGAAAAUGAUCACGAGAGAGAUCCCGAACAAUUUUCAGAAUUUG (structured_RNA) [EAR1 zip code]
binding result [8]: binds | binding result ([7]; stem-loop): binds | Kd [2]: ~25 nM

B6: ASH1 E2B (domain 1) (structured_RNA)
RNA: AUCUUCAUCUCCAUCUCCCUCCACACCGACGAAAAGUGGCAAGAUGAGAUCAAGAUCA
Kd [2]: ~25 nM

B7: E3-118-tRNA (structured_RNA)
RNA: GGCUACGUAGCUCAGUUGGUUAGAGCAGCGGCCGGAGACAGUAGAGAAUUGAUACAUGGAUAACUGAAUCUCUUUCAACUAAUAAGAGACAUUAUCACGAAACAAUUGUACAUUUCUCUCCUUGUCUGUGCUAAAUAAACUACAAAUAAAAACCGCGGGUCACAGGUUCGAAUCCCGUCGUAGCCACCA
binding result [9]: binds | binding result [10]: binds | binding result [11]: binds | binding result [12]: binds | binding result [13]: binds
